Here are results for 4 molecules from patent publication US20130156779A1 (GlaxoSmithKline, published 2013).

Broadly, the Kd is the equilibrium constant for the complex coming apart. The term kon denotes the rate constant with which the complex forms. By koff is commonly meant the first-order rate constant of dissociation.

The target of assay [1] is T1, Full-length human HER3 extracellular domain (ECD) (human, UniProt P21860 20-643).
T1 construct: also called human HER3 ECD; HER-3 ECD full length
The experiment in a line: affinity summary table, method not given.

In assay [2] the target is T2, Human HER3 ECD domain II (human, UniProt P21860 184-329).
T2 construct: also called D2; Domain 2
Put plainly: affinity summary table, method not given.

For assay [3], the target named is T1, Full-length human HER3 extracellular …. Put plainly: BIACORE 2000 SPR, mAb captured, HER3 protein as analyte, 25 C. As to the method:
(§1) Mouse monoclonal antibodies were analysed using rabbit anti-mouse (RAM) IgG (GE Healthcare BR-1008-38) covalently coupled to a BIACORE™ CM5 chip (GE HEalthcare BR-1000-14) by primary amine chemistry (NHS/EDC activated) (GE Healthcare amine coupling kit BR-1000-50). Chimeric and humanized competitor monoclonal antibodies were analyzed using anti-human, Fc specific monoclonal (GE Healthcare BR-1008-39) similarly coupled. Each chip was also prepared with a reference surface to which no capture reagent antibody is coupled. Sensorgrams for cycles run with differing analyte concentrations are acquired for kinetic analysis. A cycle consists of capturing the monoclonal on the surface, a short stabilization period with flowing run buffer followed by binding of a defined concentration of analyte (ECD or sub-domain protein). Injection of analyte for surface binding (3-4 minutes) yields the association part of curve. This is followed by buffer only flow (3-4 minutes) which allows recording of dissociation data.
(§2) The general method for affinity analysis is as follows. First, chips were prepared and tested for reasonance units (RU) captured for several monoclonal antibody concentrations. Kinetic cycles were then run in which monoclonal antibody was captured to a level of approximately 100RU, analyte protein was allowed to bind then dissociate and the surface was regenerated to remove all but covalently coupled protein. RAM chips were regenerated with capture kit supplied 100 mM glycine pH1.7 and anti-human chips with capture kit supplied 3M MgCl₂. […] Several buffer cycles were run prior to analyte protein to ensure cycle consistency and in some experiments a buffer cycle is used a “double reference[.]” Analytes used were human full length HER3 extra cellular domain (ECD), separate sub-domains of the extracellular portion of human HER3 (D1, D2, D3, D4), or combination HER3 domain proteins (D1-2 and D2-3).
In general terms: SPR reads the build-up and loss of mass on a sensor chip optically.

Assay [4] addresses T2, Human HER3 ECD domain II. The description is as above. As to the method: as §1, §2
Assay [5] has as its target T1, Full-length human HER3 extracellular …. The experiment in a line: BIACORE 3000 SPR, mAb captured by anti-human Fc, ECD as analyte, 25 C. As to the method:
The binding kinetics of these antibodies for was assessed using a BIACORE™ 3000. Antibodies were captured on a CM5 biosensor chip to which an immobilized anti-human IgG (Fc specific) BIACORE™ (GE Healthcare cat# BR-1008-39) monoclonal antibody had been conjugated using supplied coupling buffer (9000 RU). Full-length human HER3 ECD concentrations were injected for 120s at a flow rate of 30 ul/min. Biosensor chips were regenerated as described in Example 1. Kinetics were determined by global fitting of data to the 1:1 Langmuir model using BIACORE™ Evaluation software. Analytical runs were carried out at 25° C. using FIBS-EP as the running buffer.
Buffer cycle and double referencing were performed as described in Example 1; and 5) Regenerate biosensor chips with BIACORE™ optimized buffers.

Assay [6] addresses T3, Human HER3 receptor (human, UniProt P21860 20-1342). Put plainly: cell-based or functional assay.
For assay [7], the target named is T3, Human HER3 receptor. The experiment in a line: cell-based or functional assay. The source holds these as a separate data set.
For assay [8], the target named is T3, Human HER3 receptor. The experiment in a line: cell-based or functional assay. The source holds these as a separate data set.
Assay [9] has as its target T2, Human HER3 ECD domain II. The experiment in a line: DELFIA, plate coated with HER3 Domain II 1ug/ml. As to the method: Dissociation Enhanced Lanthanide Fluorescence Immunoassay (DELFIA) for detection of the anti-HER3 antibodies to HER3 extracellular domain (ECD) was used. The DELFIA procedures were as follows: white Maxisorp 96-well plates (Nunc #437796) were coated with 100 ul/well of 1 ug/ml HER-3 ECD full length or HER3Domain I, II, III and IV in 0.1M carbonate buffer pH 9.5 overnight at 4° C. These plates were blocked with casein in TBS (Thermo Scientific #37532 lot#JD121074). The neat hybridoma supernatant, or the purified anti-HER3 antibodies diluted in Perkin Elmer #4002-0010 Assay Buffer from 10 ug/ml (or 100 ug/ml) to 0.01 ug/ml, or the PK serum samples with a minimum of 3 dilutions (100 ul/well) were added to the plate. These samples were incubated for 2 hours at room temperature while on a plate shaker or overnight at 4° C. […] The plate was washed 4 times with tris-buffer plus 0.05% tween-20 (Perkin Elmer #4010-0010) on a BIOTEK™ plate washer following each antibody incubation step. 100 ul/well of DELFIA enhancement solution (Perkin Elmer 1244-105) was added for 5 minutes at room temperature. […] Antibody binding was recorded as europium counts per well.

Assay [10] deals with T1, Full-length human HER3 extracellular …. Put plainly: BIACORE SPR, mAb captured on protein A, ECD as analyte, 25 C. As to the method: (§3) Protein A was immobilised on a CM5 chip by primary amine coupling to a level of ˜1300 resonance units (RU′s), humanized antibodies were then captured on this chip, All antibodies were captured to a similar level (100-200 RU's). […] Alternatively, the full-length, rat HER3 ECD or the full-length cynomolgus monkey ECD were passed over the chip at 10 nM, 5 nM, 2.5 nM, 1:25nM, 0.625 nM and 0.3125nM. An injection of buffer alone was used to double reference the binding curves as indicated in Example 1. Regeneration of this surface was achieved using 10 mM Glycine buffer pH 1.5. The binding data was fitted to the 1:1 model using BIACORE™ Evaluation software. Runs were carried out at 25° C. on a BIACORE™ T3000 using HBS-EP as running buffer.

Assay [11] has the same target. The description is as above. As to the method: as §3
The source holds these as a separate data set.

For assay [12], the target named is T4, Full-length rat HER3 extracellular domain (ECD) (rat, UniProt Q62799 20-643).
T4 construct: extracellular domain; also called Rat HER3 ECD
Described as above. As to the method: as §3

The target in assay [13] is T5, Full-length cynomolgus monkey HER3 extracellular domain (ECD) (cynomolgus monkey, UniProt G7PIG5 20-643).
T5 construct: extracellular domain; also called Cynomolgus monkey HER3 ECD
The description is as above. As to the method: as §3

T2 sequence (P21860 184-329): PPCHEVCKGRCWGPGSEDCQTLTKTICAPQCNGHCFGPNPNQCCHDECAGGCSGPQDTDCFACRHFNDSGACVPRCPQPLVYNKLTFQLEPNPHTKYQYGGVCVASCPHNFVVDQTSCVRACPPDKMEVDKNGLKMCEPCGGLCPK
T4 sequence (Q62799 20-643): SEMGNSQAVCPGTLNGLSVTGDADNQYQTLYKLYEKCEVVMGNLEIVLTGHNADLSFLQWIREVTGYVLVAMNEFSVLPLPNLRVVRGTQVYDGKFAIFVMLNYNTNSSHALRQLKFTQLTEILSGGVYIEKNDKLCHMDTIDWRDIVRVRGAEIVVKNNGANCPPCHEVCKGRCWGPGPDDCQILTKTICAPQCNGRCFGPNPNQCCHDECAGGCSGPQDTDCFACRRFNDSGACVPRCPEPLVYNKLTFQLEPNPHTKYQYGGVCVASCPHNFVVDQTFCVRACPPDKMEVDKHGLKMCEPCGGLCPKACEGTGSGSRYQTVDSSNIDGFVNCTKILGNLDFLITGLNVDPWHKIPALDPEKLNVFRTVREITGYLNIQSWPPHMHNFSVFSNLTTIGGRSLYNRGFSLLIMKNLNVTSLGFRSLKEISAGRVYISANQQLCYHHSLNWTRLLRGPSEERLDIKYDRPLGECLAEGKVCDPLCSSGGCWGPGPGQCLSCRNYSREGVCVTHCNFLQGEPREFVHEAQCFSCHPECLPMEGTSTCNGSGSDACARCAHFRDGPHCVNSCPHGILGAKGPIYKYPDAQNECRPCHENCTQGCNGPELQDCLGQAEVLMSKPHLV
T1 sequence (P21860 20-643): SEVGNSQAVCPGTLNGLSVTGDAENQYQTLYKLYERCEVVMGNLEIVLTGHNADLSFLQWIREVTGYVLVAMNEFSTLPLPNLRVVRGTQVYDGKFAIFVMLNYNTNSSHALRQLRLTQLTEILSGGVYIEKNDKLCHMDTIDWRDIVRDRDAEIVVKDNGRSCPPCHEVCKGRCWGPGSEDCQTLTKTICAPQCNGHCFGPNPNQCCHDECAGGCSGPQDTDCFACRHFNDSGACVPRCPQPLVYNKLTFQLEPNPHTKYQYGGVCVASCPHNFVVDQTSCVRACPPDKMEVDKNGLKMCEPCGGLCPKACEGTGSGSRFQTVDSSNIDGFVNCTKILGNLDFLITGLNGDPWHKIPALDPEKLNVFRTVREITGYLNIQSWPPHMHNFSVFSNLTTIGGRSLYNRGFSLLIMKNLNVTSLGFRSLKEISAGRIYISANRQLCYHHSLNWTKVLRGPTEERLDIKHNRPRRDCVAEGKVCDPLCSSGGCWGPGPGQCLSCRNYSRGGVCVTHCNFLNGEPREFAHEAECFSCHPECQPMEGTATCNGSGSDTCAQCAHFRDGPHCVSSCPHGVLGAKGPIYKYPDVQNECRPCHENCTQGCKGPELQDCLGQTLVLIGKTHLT
T3 sequence (P21860 20-1342 limits assumed): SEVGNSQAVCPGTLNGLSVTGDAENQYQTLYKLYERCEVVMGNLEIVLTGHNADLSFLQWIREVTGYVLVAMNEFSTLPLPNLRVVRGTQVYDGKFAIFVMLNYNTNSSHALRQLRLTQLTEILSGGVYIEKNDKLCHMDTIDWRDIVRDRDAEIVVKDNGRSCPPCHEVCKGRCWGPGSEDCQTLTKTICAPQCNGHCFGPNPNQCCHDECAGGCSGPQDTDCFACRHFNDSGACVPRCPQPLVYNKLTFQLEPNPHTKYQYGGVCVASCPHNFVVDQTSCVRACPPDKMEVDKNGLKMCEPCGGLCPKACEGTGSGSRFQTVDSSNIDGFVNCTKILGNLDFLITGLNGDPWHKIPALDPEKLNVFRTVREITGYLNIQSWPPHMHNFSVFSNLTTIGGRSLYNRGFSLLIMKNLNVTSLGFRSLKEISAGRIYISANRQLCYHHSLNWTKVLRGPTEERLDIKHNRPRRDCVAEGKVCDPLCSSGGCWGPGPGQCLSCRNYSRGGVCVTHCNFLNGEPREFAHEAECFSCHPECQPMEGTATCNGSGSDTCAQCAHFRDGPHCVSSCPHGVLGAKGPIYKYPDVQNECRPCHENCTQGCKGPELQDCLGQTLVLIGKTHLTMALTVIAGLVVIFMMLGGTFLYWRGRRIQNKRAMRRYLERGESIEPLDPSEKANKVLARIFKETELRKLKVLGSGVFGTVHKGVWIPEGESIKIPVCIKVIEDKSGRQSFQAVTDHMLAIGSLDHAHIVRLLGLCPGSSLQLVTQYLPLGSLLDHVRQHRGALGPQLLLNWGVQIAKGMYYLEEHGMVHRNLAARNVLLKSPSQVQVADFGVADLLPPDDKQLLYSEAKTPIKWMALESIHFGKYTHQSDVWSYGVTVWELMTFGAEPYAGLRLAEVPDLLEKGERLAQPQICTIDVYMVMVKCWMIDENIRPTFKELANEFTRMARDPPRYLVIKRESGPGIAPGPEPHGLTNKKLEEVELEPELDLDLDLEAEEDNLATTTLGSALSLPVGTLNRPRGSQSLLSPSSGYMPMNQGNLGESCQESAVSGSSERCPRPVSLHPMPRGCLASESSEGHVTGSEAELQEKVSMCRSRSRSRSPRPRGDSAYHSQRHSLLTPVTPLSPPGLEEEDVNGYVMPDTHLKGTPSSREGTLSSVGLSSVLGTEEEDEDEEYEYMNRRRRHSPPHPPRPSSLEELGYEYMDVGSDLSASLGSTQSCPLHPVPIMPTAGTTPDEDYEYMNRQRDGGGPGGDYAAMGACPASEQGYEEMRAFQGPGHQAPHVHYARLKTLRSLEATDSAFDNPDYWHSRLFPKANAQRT
T5 sequence (G7PIG5 entry or part of it): as the sequence (P21860 20-643) above, with R145K, R151Q, P166L, S180P, H388Y counted along it

B1: Chimeric 15D5 antibody (antibody, human IgG1, V domains shown)
VH: EFQLQQSGPELVKPGASVKISCKASGYSFTDYNMNWVKQNNGKSLEWIGGINPNYGTTVYNQKFKGKATLTVDQSSSTAYMQLVSLTSEDSAVYYCARMTTIVPFDYWGQGTTLTVSS
VL: DIQMTQTTFSLSASLGDRVTISCRASQDISNYLNWYQQKPDGTVKLLIYYTSTLHSGVPSRFSGSGSGTDYFLTIRNLEEEDIATYFCQQGYTLPWTFGGGTKLDIK
notes: To be rechecked; also called Ch15D5; ch15D5
Turning to B1, the equilibrium dissociation constant (Kd) in [1] was roughly 1 nM; in [2], 0.02 nM; in assay [3], 0.87 nM; in assay [4] it was 0.02 nM; in assay [5], 3.19 nM. Besides, the values for the kon in [3], in [4] and in assay [5] were 67900 M⁻¹ s⁻¹, 3.82e+06 M⁻¹ s⁻¹ and 44000 M⁻¹ s⁻¹, respectively. Further, the koff in assay [5] worked out at 0.00014 s⁻¹.

B2: Humanized 1D9 …B™ antibody (antibody, human IgG1, kappa)
heavy: QVQLVQSGAEVKKPGASVKVSCKASGYTFTSYWMHWVRQAPGQGLEWMGVIDPSDGYSHYNQKFKGKVTLTVDTSISTAYMELSRLRSDDTAVYYCAGGLAGTLDYWGQGTTVTVSSASTKGPSVFPLAPSSKSTSGGTAALGCLVKDYFPEPVTVSWNSGALTSGVHTFPAVLQSSGLYSLSSVVTVPSSSLGTQTYICNVNHKPSNTKVDKKVEPKSCDKTHTCPPCPAPELLGGPSVFLFPPKPKDTLMISRTPEVTCVVVDVSHEDPEVQFKWYVDGVEVHNAKTKPREEQFNSTFRVVSVLTVLHQDWLNGKEYKCKVSNKALPAPIEKTISKTKGQPREPQVYTLPPSREEMTKNQVSLTCLVKGFYPSDIAVEWESSGQPENNYKTTPPMLDSDGSFFLYSKLTVDKSRWQQGNIFSCSVMHEALHNHYTQKSLSLSPGK
light: DIQMTQSPSSLSASVGDRVTITCRSSQSIVHSSGNTYLQWFQQKPGKAPKLLIYKVSNRFSGVPSRFSGSGSGTDFTLTISSLQPEDFAVYYCFQGSHVPWTFGQGTKLEIKRTVAAPSVFIFPPSDEQLKSGTASVVCLLNNFYPREAKVQWKVDNALQSGNSQESVTEQDSKDSTYSLSSTLTLSKADYEKHKVYACEVTHQGLSSPVTKSFNRGEC
modifications: non-fucosylated glycans on the marked N* residue
notes: Chimeric IgG1/IgG3 Fc, expressed in FUT8- cells; also called humanized …B 1D9 antibody; humanized 1D9 H6L2 …B antibody
B2: the “IC50 of heregulin induced phospho-AKT formation, BxPC3 cells” value in assay [6] was determined as 0.0026 µg/mL. In [7], the “Phospho-HER3 ELISA IC50, heregulin induced, BxPC3 cells” value was determined as 0.0026 µg/mL; the “Phospho-HER3 ELISA IC50, heregulin induced, CHL-1 cells” value turned out to be 0.0311 µg/mL; the “Phospho-HER3 ELISA IC50, heregulin induced, N87 cells” value is 0.0094 µg/mL; the “Phospho-HER3 ELISA IC50, heregulin induced, SK-BR-3 cells” value is 0.0025 µg/mL. The “Phospho-AKT ELISA IC50, heregulin induced, BxPC3 cells” value in assay [8] was 0.0108 µg/mL. Also, the binding result in assay [9] is listed as “no binding (tested: 10 ug/ml)”. In [10], this molecule showed a Kd of 2.06 nM, a dissociation rate constant (koff) of 0.00233 s⁻¹ and a kon of 1.13e+06 M⁻¹ s⁻¹.

B3: Humanized 15D5 antibody (H4L1) (antibody, human IgG1, V domains shown)
VH: QVQLVQSGAEVKKPGASVKVSCKASGYTFTDYNMNWVRQAPGQGLEWMGGINPNYGTTVYNQKFKGKVTLTVDTSISTAYMELSRLRSDDTAVYYCARMTTIVPFDYWGQGTTVTVSS
VL: DIQMTQSPSSLSASVGDRVTITCRASQDISNYLNWYQQKPGKAPKLLIYYTSTLHSGVPSRFSGSGSGTDYTFTISSLQPEDIATYYCQQGYTLPWTFGGGTKVEIKR
notes: Human IgG1; also called h15D5
For B3, the Kd in [1] was found to be 3.5 nM; in [2], 0.074 nM; in assay [5] it was 2.62 nM. In [5], the off-rate constant (koff) was determined as 0.000196 s⁻¹. This molecule had a kon in [5] of 74900 M⁻¹ s⁻¹.

B4: Humanized 1D9 Fc disabled antibody (antibody, V domains shown)
VH: QVQLVQSGAEVKKPGASVKVSCKASGYTFTSYWMHWVRQAPGQGLEWMGVIDPSDGYSHYNQKFKGKVTLTVDTSISTAYMELSRLRSDDTAVYYCAGGLAGTLDYWGQGTTVTVSS
VL: DIQMTQSPSSLSASVGDRVTITCRSSQSIVHSSGNTYLQWFQQKPGKAPKLLIYKVSNRFSGVPSRFSGSGSGTDFTLTISSLQPEDFAVYYCFQGSHVPWTFGQGTKLEIKR
notes: Humanized VH fused to a modified Fc domain incapable of mediating CDC/ADCC; also called humanized 1D9 H6L2 Fc disabled antibody
With B4, in assay [7], the “Phospho-HER3 ELISA IC50, heregulin induced, BxPC3 cells” value is 0.0107 µg/mL; the “Phospho-HER3 ELISA IC50, heregulin induced, CHL-1 cells” value turned out to be 0.0399 µg/mL; the “Phospho-HER3 ELISA IC50, heregulin induced, N87 cells” value came to 0.0297 µg/mL; the “Phospho-HER3 ELISA IC50, heregulin induced, SK-BR-3 cells” value came out at 0.0044 µg/mL. Besides, the “Phospho-AKT ELISA IC50, heregulin induced, BxPC3 cells” value in assay [8] is 0.0316 µg/mL. Moreover, in [10], the affinity, expressed as Kd, was 4.49 nM; the off-rate constant (koff) was 0.00122 s⁻¹; the kon is 271000 M⁻¹ s⁻¹. In assay [11], this molecule registered a Kd of 4.49 nM, an off-rate constant (koff) of 0.00122 s⁻¹ and an on-rate (kon) of 271000 M⁻¹ s⁻¹. In assay [12], this molecule showed a dissociation constant Kd of 3.37 nM, a koff of 0.0011 s⁻¹ and a kon of 326000 M⁻¹ s⁻¹. In [13], this molecule had a Kd of 1.73 nM, an off-rate constant (koff) of 0.00189 s⁻¹ and a kon of 1.09e+06 M⁻¹ s⁻¹.
